Results taken from patent US20180305699A1 (UNIVERSITY OF CHICAGO, published 2018).

How the values were obtained:
[1] = biological target: T1, glutamyl-tRNA synthetase (Gus1) (S. cerevisiae, UniProt P46655 1-708); assay: co-elution on Superdex200 gel filtration, western blot of fractions (AME complex of Arc1, Mes1 and Gus1)
T1 construct: Component of the purified AME complex; also called YGL245W
T1 sequence: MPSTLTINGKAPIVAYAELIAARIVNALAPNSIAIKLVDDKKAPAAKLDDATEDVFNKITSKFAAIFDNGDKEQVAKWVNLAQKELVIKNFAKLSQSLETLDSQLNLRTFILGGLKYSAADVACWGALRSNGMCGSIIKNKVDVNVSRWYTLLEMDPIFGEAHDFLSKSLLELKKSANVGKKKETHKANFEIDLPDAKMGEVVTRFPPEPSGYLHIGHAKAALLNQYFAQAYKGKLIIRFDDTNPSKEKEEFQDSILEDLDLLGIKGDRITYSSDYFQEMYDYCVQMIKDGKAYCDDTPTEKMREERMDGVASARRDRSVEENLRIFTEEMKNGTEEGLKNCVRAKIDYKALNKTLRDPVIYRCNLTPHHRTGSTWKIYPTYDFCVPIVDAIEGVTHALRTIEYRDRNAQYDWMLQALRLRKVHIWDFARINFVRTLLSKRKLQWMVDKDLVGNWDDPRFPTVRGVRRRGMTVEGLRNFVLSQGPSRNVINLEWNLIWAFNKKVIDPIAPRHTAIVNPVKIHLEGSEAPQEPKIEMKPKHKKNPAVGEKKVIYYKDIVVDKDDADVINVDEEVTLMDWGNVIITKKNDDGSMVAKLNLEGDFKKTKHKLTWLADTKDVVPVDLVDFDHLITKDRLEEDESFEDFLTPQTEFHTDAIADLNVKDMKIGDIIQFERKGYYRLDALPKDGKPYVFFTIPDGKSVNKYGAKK
From the text: (§1) Shown on the left panel is the elution profile from Superdex200 gel filtration column.

[2] = biological target: T2, methionyl-tRNA synthetase (Mes1) (S. cerevisiae, UniProt P00958 2-751, limits assumed); assay: as above
T2 construct: Component of the purified AME complex; also called YGR264C
T2 sequence: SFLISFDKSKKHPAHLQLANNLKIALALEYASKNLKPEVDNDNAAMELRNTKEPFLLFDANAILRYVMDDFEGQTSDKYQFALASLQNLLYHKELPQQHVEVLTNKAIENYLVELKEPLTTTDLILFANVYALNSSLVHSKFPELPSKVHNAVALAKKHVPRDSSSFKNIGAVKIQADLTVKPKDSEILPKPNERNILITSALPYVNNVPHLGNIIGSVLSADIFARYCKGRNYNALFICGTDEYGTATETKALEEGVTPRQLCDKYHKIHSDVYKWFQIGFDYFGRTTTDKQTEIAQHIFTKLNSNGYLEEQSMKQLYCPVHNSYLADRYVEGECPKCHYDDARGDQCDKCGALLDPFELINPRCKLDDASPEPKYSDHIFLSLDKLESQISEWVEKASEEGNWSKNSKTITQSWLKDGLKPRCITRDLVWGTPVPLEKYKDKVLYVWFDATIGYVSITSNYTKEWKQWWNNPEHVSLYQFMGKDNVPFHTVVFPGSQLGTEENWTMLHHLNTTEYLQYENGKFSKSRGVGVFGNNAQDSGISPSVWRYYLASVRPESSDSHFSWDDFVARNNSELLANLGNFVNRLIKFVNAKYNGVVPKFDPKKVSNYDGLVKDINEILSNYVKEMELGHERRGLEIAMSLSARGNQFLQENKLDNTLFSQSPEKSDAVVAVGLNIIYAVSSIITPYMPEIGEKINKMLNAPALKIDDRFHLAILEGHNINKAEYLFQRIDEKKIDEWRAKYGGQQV
From the text: as §1

- binding result [1]: binds
- binding result [2]: binds
B1: aminoacylation cofactor (Arc1) (other)
chain: MSDLVTKFESLIISKYPVSFTKEQSAQAAQWESVLKSGQIQPHLDQLNLVLRDNTFIVSTLYPTSTDVHVFEVALPLIKDLVASSKDVKSTYTTYRHILRWIDYMQNLLEVSSTDKLEINHDLDLPHEVIEKKKKAPAGGAADAAAKADEDVSKKAKKQDHPRGKPDEETLKKLREEAKAKKAAKKAANAKQQQEQQNKAPEKPKPSAIDFRVGFIQKAIKHPDADSLYVSTIDVGDEEGPRTVCSGLVKHFPLDAMQERYVVVVCNLKPVNMRGIKSTAMVLCGSNDDKVEFVEPPKDSKAGDKVFFEGFGDEAPMKQLNPKKKIWEHLQPHFTTNDGLEVIFKDEEEKDHPVRKLTNAKGESFKVASIANAQVR
notes: Component of the purified AME complex; also called YGL105W
